Patent US20090181444A1, “MODIFIED CARBOHYDRATE PROCESSING ENZYME” (priority 2002, published 2009)
Where a chain is given by its changes, count along the chain named. In names and notes the source's numbering stands. Structures can show the parent of a compound that is named as a salt.

B1: E432C: SSβG point mutant Glu-432→Cys (protein, listed as Sulfolobus solfataricus)
chain: MYSFPNSFRFGWSQAGFQSEMGTPGSEDPNTDWYKWVHDPENMAAGLVSGDLPENGPGYWGNYKTFHDNAQKMGLKIARLNVEWSRIFPNPLPRPQNFDESKQDVTEVEINENELKRLDEYANKDALNHYREIFKDLKSRGLYFILNMYHWPLPLWLHDPIRVRRGDFTGPSGWLSTRTVYEFARFSAYIAWKFDDLVDEYSTMNEPNVVGGLGYVGVKSGFPPGYLSFELSRRHMYNIIQAHARAYDGIKSVSKKPVGIIYANSSFQPLTDKDMEAVEMAENDNRWWFFDAIIRGEITRGNEKIVRDDLKGRLDWIGVNYYTRTVVKRTEKGYVSLGGYGHGCERNSVSLAGLPTSDFGWEFFPEGLYDVLTKYWNRYHLYMYVTENGIADDADYQRPYYLVSHVYQVHRAINSGADVRGYLHWSLADNYCWASGFSMRFGLLKVDYNTKRLYWRPSALVYREIATNGAITDEIEHLNSVPPVKPLRH
B2: M439C: SSβG point mutant Met-439→Cys (protein)
chain: B1 chain with C432E, M439C
B3: W433C: SSβG point mutant Trp-433→Cys (protein, listed as Sulfolobus solfataricus)
chain: B1 chain with C432E, W433C
B4: C344S: SsβG mutant C344S, side chain at position 439 —CH2CH2SCH3 (protein)
chain: B1 chain with C344S, C432E

Key:
[1] = Hydrolysis of 4-methylumbelliferyl-β-D-galactoside, initial rates; assay type: biochemical; details: 80° C., pH 6.5; for Km / kcat: 4-MUGal
Method: (§1) Parameters were determined by the method of initial rates. Activity was measured in time course assays of the hydrolysis of 4-methylumbelliferyl-β-D-glycosides (β-D-gluco, β-D-galacto, β-D-fuco, β-D-manno, β-D-xylo, β-D-glucurono) at 5-15 concentrations (0.001-1.5 mM) incubated at 80° C. in 50 mM sodium phosphate buffer, pH 6.5. Reactions were terminated at 2, 5, 10, 15 min by the addition of 100 μl of ice cold 1M NazCO3, pH 10 and analyzed (Labsystems Fluoroscan Ascent plate reader, […]). KM and kcat were derived by fitting the initial rates to hyperbolic Michaelis-Menten curves using GraFit 4 (Erithacus Software Ltd, Staines, UK).
(§2) Determination of the Michaelis-Menten parameters for the WT and mutant enzymes was performed at pH 6.5 at 80° C. for a broad range of representative, fluorophore-containing 4-methylumbelliferyl glycoside substrates, which allowed activities to be determined with a high degree of sensitivity (Table). Under these optimized assay conditions, the glucoside (Glc), galactoside (Gal) and fucoside (Fuc) substrates were hydrolysed well by SSβG-WT, but the xyloside (Xyl) substrate was hydrolysed relatively poorly (approx. 3% of turnover as determined by kcat compared with β-D-glucoside). […] In all cases the absolute D-stereospecificity and β-stereoselectivity of SSβG was maintained and no activity was detected towards L- or α-glycoside substrates.

[2] = Substrate specificity compared across 4-methylumbelliferyl-β-D-glycosides; assay type: biochemical
Method: as §1, §2

[3] = Hydrolysis of 4-methylumbelliferyl-β-D-mannoside, initial rates; assay type: biochemical; details: for Km / kcat: 4-MUMan, 80° C., pH 6.5
Method: as §1, §2

[4] = Hydrolysis of 4-methylumbelliferyl-β-D-glucoside, initial rates; assay type: biochemical; details: 80° C., pH 6.5; for Km / kcat: 4-MUGlc
Method: as §1, §2

[5] = Hydrolysis of 4-methylumbelliferyl-β-D-xyloside, initial rates; assay type: biochemical; details: for Km / kcat: 4-MUXyl, 80° C., pH 6.5
Method: as §1, §2

[6] = Hydrolysis of 4-methylumbelliferyl-β-D-glucuronide, initial rates; assay type: biochemical; details: for kcat / Km: 4-MUGlcA, 80° C.
Method: as §1, §2

[7] = Hydrolysis of 4-methylumbelliferyl-β-D-fucoside, initial rates; assay type: biochemical; details: for Km / kcat: 4-MUFuc, 80° C., pH 6.5
Method: as §1, §2

[8] = Parallel one-pot glycoside synthesis (transglycosylation to MeOH); assay type: biochemical; details: 8 h, 50° C., 1:9 MeOH:phosphate buffer pH 6.5
Method: Enzyme (WT, […] or E432C, 1 mg) was added to a mixed solution (1 mL) of para-nitrophenyl (pNP) β-D-manno-, galacto-, gluco- and xylo- pyranosides (0.03 mmol of each) in 1:9 MeOH:phosphate buffer (pH 6.5) and incubated at 50° C. for 45 min (WT), 4 h (WT), 8 h (W433C, E432C). After this time the solutions were extracted with EtOAc to remove para-nitrophenol and passed through short Sephadex and Celite:Graphite (1:1) columns to remove protein, pNP-glycoside and remaining para-nitrophenol. Solvent was removed and product mixtures were analysed by ^1H NMR and ESMS. Yields based on donor were calculated from integration of anomeric proton resonances in ^1H NMR (D2O, 500 MHz): α-Gal (δ 5.12, d, […]), α-Glc (δ 5.08, d, 3.8 Hz), α-Xyl (δ 5.04, d, J=3.4 Hz), α-Man (δ 5.03, d, J=1.8 Hz), β-Man (δ 4.75, s), β-Glc (δ 4.49, d, J=8.0 Hz), P-Gal (δ 4.45, d, 7.9 Hz), Me-β-Man (δ 4.44, s), β-Xyl (δ 4.42, d, J=7.8 Hz), Me-β-Glc (δ 4.23, d, J 8.1 Hz), Me-β-Xyl (δ 4.18, d, J=7.8 Hz), Me-β-Gal (δ 4.17, d, J=8.0 Hz).
Scheme 1: Parallel glycoside syntheses using SSβG-WT, -E432C and -W433C as catalysts. […] Such balanced libraries are not produced by SSβG-WT even under varying reaction times.

[9] = Kinetic assay with o-nitrophenyl β-D-galactopyranoside-6-phosphate, absorbance at 405 nm; assay type: biochemical; details: oNPGalP6, 45° C., pH 6.5 phosphate buffer; averaged over 3 runs, except * 2 runs
Method: (§3) The kinetic activity of SsδG was assessed using ultra-violet/visible spectroscopy. Cleavage of the glycosidic bond of the nitrophenyl sugar analogue releases a chromophore (Scheme 18), either p-nitrophenol or o-nitrophenol.
(§4) The absorbance of these chromophores at 405 nm was continuously measured at regular time intervals, and the Beer-Lambert Law used to calculate the chromophore concentration at each of these time intervals.
(§5) In order to use this equation the extinction coefficient, ∈, of both p-nitrophenol and o-nitrophenol were calculated. Enzyme kinetic parameters were assessed using the initial rates method. The gradient of a plot of chromophore concentration against time gave the initial rate of reaction at a series of substrate concentrations (0.05-10 mM). Kinetic parameters were calculated by regression analysis of the kinetic data on the Michaelis-Menten Model (Fersht, A., Enzyme Structure and Mechanism, W.H. Freeman and Company, New York (1985)). The initial rate of reaction was measured. This model is valid when [substrate]>>[enzyme], which are initial rate conditions.
(§6) KM and νmax were calculated from non-linear Michaelis-Menten and linear Lineweaver-Burk plots. From these values, kcat and kcat/KM were calculated and compared.
KM=νmax/2, it is the concentration of substrate at which half the active sites are filled. Higher KM values correspond to weaker binding and lower KM values correspond to stronger binding kcat, the turnover number is the number of substrate molecules which are converted to product when the enzyme is saturated with substrate and ν (rate) is maximised. […] To allow comparison of the activity of the enzymes, ln({kcat/KM}mutant/{kcat/KM}WT) was calculated for each enzyme-substrate combination, to give overall activity relative to WT.
Substrate solutions (concentration 10 mM in 50 mM pH 6.5 phosphate buffer) were prepared. […] The enzyme stock solution (˜1 mgmL^−1) was diluted between 16- and 80-fold depending on the kinetic parameters determined*. […] Simultaneously a 96-well flat bottom microtitre plate was incubated at 45° C. in a plate reader. […] The plate containing the enzyme and substrate solutions was then incubated in the plate reader at 45° C. to allow equilibration. […] Release of p-nitrophenol/o-nitropbenol was measured by absorbance at […], with an automix of 3 s before the first read and Is between every subsequent read. The run time chosen was between 6 min and 10 min*, and readings were taken at intervals of between 6 s and 10 s*.
(§7) A graph of concentration of the released chromophore (either pNP or oNP) against time was drawn for each concentration using Microsoft Excel. […] These gradients were entered into Grafit, which calculated KM and νmax from the Michelis-Menten and Lineweaver-Burk plots. From these kcat and kcat/KM could be calculated. […]

[10] = Kinetic assay with p-nitrophenyl β-D-galactopyranoside, absorbance at 405 nm; assay type: biochemical; details: pNPGal, 45° C., pH 6.5 phosphate buffer, averaged over 3 runs, except * 2 runs
Method: as §3, §4, §5, §6
KM=νmax/2, it is the concentration of substrate at which half the active sites are filled. Higher KM values correspond to weaker binding and lower KM values correspond to stronger binding kcat, the turnover number is the number of substrate molecules which are converted to product when the enzyme is saturated with substrate and ν (rate) is maximised. Given both of these considerations, binding and rate, kcat/KM is typically as a measure of the overall relative activity of the enzyme. To allow comparison of the activity of the enzymes, ln({kcat/KM}mutant/{kcat/KM}WT) was calculated for each enzyme-substrate combination, to give overall activity relative to WT.
Substrate solutions (concentration 10 mM in 50 mM pH 6.5 phosphate buffer) were prepared. Kinetic assays were conducted in a 96-well flat bottom microtitre plate. Eight substrate concentrations were chosen for the assay from the range 0.05 mM to 10 mM (prepared from 10 mM stock solution), based on previous experimental experience of the kinetics of each enzyme (default range 0.05 mM to 2.00 mM)*. The enzyme stock solution (˜1 mgmL^−1) was diluted between 16- and 80-fold depending on the kinetic parameters determined*. The enzyme solution (496 µL) was dispensed into a 1.5 mL sealed Eppendorf tube. Into eight further Eppendorf tubes a portion of each substrate solution (650 μL) was dispensed. The tubes were incubated in a Techni Dri Block at 45° C. Simultaneously a 96-well flat bottom microtitre plate was incubated at 45° C. in a plate reader. […] The plate containing the enzyme and substrate solutions was then incubated in the plate reader at 45° C. to allow equilibration. […] Release of p-nitrophenol/o-nitropbenol was measured by absorbance at […], with an automix of 3 s before the first read and Is between every subsequent read. The run time chosen was between 6 min and 10 min*, and readings were taken at intervals of between 6 s and 10 s*.
as §7

| Molecule | melting point [°C] | Km [1] [µM] | kcat [1] [s⁻¹] | Gal kcat/KM reduction relative to WT [1] [fold] | Km [3] [µM] | kcat [3] [s⁻¹] | Km [4] [µM] | kcat [4] [s⁻¹] | Glc kcat/KM reduction relative to WT [4] [fold] | Km [5] [µM] | kcat [5] [s⁻¹] | kcat ([6]; pH 6.5) | Km [7] [µM] | kcat [7] [s⁻¹] | Yield of Products, product 1 (β-glycoside of Glc) [8] [%] | Yield of Products, product 2 (β-glycoside of Gal) [8] [%] | Yield of Products, product 3 (β-glycoside of Man) [8] [%] | Yield of Products, product 4 (β-glycoside of Xyl) [8] [%] | Yield of Products, product 5 [8] [%] | Yield of Products, product 6 [8] [%] | other results |
| --- | --- | --- | --- | --- | --- | --- | --- | --- | --- | --- | --- | --- | --- | --- | --- | --- | --- | --- | --- | --- | --- |
| CS(=O)(=S)OCCC(=O)O (stereo not drawn) [Enzyme 16, 2-carboxyethyl methanethiosulfonate] | 44 to 46 |  |  |  |  |  |  |  |  |  |  |  |  |  |  |  |  |  |  |  |  |
| O=[N+]([O-])c1ccccc1O[C@@H]1O[C@H](COP(=O)(O)O)[C@H](O)[C@H](O)[C@H]1O (as salt: ammonium) [Enzyme 17, o-nitrophenyl β-D-galactopyranoside 6-phosphate] | 181 to 183.1 |  |  |  |  |  |  |  |  |  |  |  |  |  |  |  |  |  |  |  |  |
| B1 |  | 470 ± 140 | 5.4 ± 0.8 | 130 | 900 ± 260 | 2.8 ± 0.7 | 340 ± 70 | 5.1 ± 0.5 | 200 | 1260 ± 210 | 2.8 ± 0.3 | NAD | 340 ± 40 | 18 ± 1 | 22 | 24 | 14 | 17 | 7 | 9 | kcat values for Glc,Gal,Xyl,Man substrates [2]: 2.8 to 5.4 s⁻¹; kcat (Man) increase relative to WT [3]: 2 fold; activity towards GlcA ([6]; pH 6.5): no detectable activity; Yield of Products, product 7 [8]: 3%; Yield of Products, product 8 [8]: 4% |
| B2 |  | 83 ± 16 | 94 ± 11 |  | 42 ± 15 | 2.3 ± 0.4 | 68 ± 28 | 190 ± 40 |  | 68 ± 7 | 9.3 ± 0.2 | 1.3 ± 0.4 s⁻¹ | 23 ± 5 | 91 ± 8 |  |  |  |  |  |  | increase in Xyl over Fuc specificity ([2]; relative to WT): 10 fold; kcat/KM for Xyl higher than WT [5]: 4.7 fold; absolute increase in Xyl activity ([5]; relative to WT): 5 fold; kcat/KM for GlcA higher than WT [6]: 1.5 fold; Km ([6]; pH 6.5, read-out: Km): 1400 ± 600 µM; kcat/KM for Fuc lower than WT [7]: 1.8 fold |
| B3 |  | 2200 ± 1200 | 14 ± 6 | 230 | 180 ± 20 | 0.92 ± 0.05 | 1610 ± 350 | 33 ± 5 | 140 | 590 ± 190 | 1.5 ± 0.3 | NAD | 410 ± 90 | 31 ± 3 | 36 | 18 | 8 | 13 | 11 | 6 | broadening of Gal:Man stereospecificity relative to WT [2]: 25 fold; specificity range of kcat/KM for Glc:Gal:Xyl:Man [2]: 8 fold; kcat (Xyl) lowering relative to WT [5]: 2.9 fold; Km ([6]; pH 6.5): NAD^; Yield of Products, product 7 [8]: 3%; Yield of Products, product 8 [8]: 5% |
| B4 |  |  |  |  |  |  |  |  |  |  |  |  |  |  |  |  |  |  |  |  | Km [9]: 3590 µM; kcat [9]: 8.42 s⁻¹; kcat [10]: 4.16 s⁻¹; Km ([10]; read-out: KM): 475 µM |
